Among the data in the Human Domainome abundance scans (Beltran et al. 2025) are abundance fitness values, retold here.

± gives the uncertainty stated by the source.

First the molecules themselves.
B1: Peripheral plasma membrane protein CASK, residues 488 to 569; numbered along this chain, O14936 (parent)
chain: VRLVQFQKNTDEPMGITLKMNELNHCIVARIMHGGMIHRQGTLHVGDEIREINGISVANQTVEQLQKMLREMRGSITFKIVP

In this data set the parent is B1. As to the kind of experiment: abundance fitness (aPCA) (normalised: wild type 0, dead -1); higher = more abundant; growth selection in yeast, the domain comes from the species named. As to conditions: Homo sapiens.
VRLVQFQKNTDEPMGITLKMNELNHCIVARIMHGGMIHRQGTLHVGDEIREINGISVANQTVEQLQKMLREMDGSITFKIVP [R73D]: the abundance fitness was -0.002 ± 0.041.

With VRLVQFQKLTDEPMGITLKMNELNHCIVARIMHGGMIHRQGTLHVGDEIREINGISVANQTVEQLQKMLREMRGSITFKIVP [N9L], the abundance fitness is 0.019 ± 0.024.

For VRLVQFQKNTDSPMGITLKMNELNHCIVARIMHGGMIHRQGTLHVGDEIREINGISVANQTVEQLQKMLREMRGSITFKIVP [E12S], the abundance fitness was -0.089 ± 0.037.

VRLVQFQKNTDQPMGITLKMNELNHCIVARIMHGGMIHRQGTLHVGDEIREINGISVANQTVEQLQKMLREMRGSITFKIVP [E12Q]: the abundance fitness is -0.063 ± 0.049.

Turning to VRLVQFQKNTDEPMGITLKMNELNHCIVARIMHGGMIHRQGTLHVGHEIREINGISVANQTVEQLQKMLREMRGSITFKIVP [D47H], the abundance fitness was -1.03 ± 0.27.

For the variant VRLVQFQKNTDEPMGITLPMNELNHCIVARIMHGGMIHRQGTLHVGDEIREINGISVANQTVEQLQKMLREMRGSITFKIVP [K19P], the abundance fitness was -0.999 ± 0.1.

On to VRLVQFQKNTDEPMGITLKMNELNHCIVARIMHGGMIHRQGTLHVGDEIREINGISVANQTVEQLQKMLREMRGSITFDIVP [K79D], for which the abundance fitness is -0.27 ± 0.071.

Take VRLVQFQKNTDEPMGITLKMNELNHCIVARIMHGGMIHRQGTLHVGDEIREINGISVANQTVEQLQKMLREMRGSITFVIVP [K79V]: the abundance fitness is -0.213 ± 0.048.

On to VRLVQFQKNTDEPMGITLKMNELNHCIVARIMHGGMIHRQGTLHVGDEIREINGISVANQTVEQLQKMLREMRGSIDFKIVP [T77D], for which the abundance fitness was -0.061 ± 0.065.

VVLVQFQKNTDEPMGITLKMNELNHCIVARIMHGGMIHRQGTLHVGDEIREINGISVANQTVEQLQKMLREMRGSITFKIVP [R2V]: the abundance fitness is -0.089 ± 0.029.

Take VLLVQFQKNTDEPMGITLKMNELNHCIVARIMHGGMIHRQGTLHVGDEIREINGISVANQTVEQLQKMLREMRGSITFKIVP [R2L]: the abundance fitness is -0.159 ± 0.036.

VRLVQFQKNTDEPMGITLKMNELNHCIVARIMHGGMIHRQGTLHVGDEIREINGISVANQTVEQLQKMAREMRGSITFKIVP [L69A]: the abundance fitness is -0.355 ± 0.026.

For the variant VRLVQFQKNTDEPMGITLKMNELNHCIVARIMHGGMHHRQGTLHVGDEIREINGISVANQTVEQLQKMLREMRGSITFKIVP [I37H], the abundance fitness is -0.294 ± 0.05.

As to VRLVQFQKNTDEPMGITLKMNELNHCIVARIMHGGMMHRQGTLHVGDEIREINGISVANQTVEQLQKMLREMRGSITFKIVP [I37M], the abundance fitness is -0.021 ± 0.03.

With VRLKQFQKNTDEPMGITLKMNELNHCIVARIMHGGMIHRQGTLHVGDEIREINGISVANQTVEQLQKMLREMRGSITFKIVP [V4K], the abundance fitness was -0.259 ± 0.039.

Consider VRLFQFQKNTDEPMGITLKMNELNHCIVARIMHGGMIHRQGTLHVGDEIREINGISVANQTVEQLQKMLREMRGSITFKIVP [V4F], for which the abundance fitness was -0.094 ± 0.05.

With TRLVQFQKNTDEPMGITLKMNELNHCIVARIMHGGMIHRQGTLHVGDEIREINGISVANQTVEQLQKMLREMRGSITFKIVP [V1T], the abundance fitness was determined as 0.015 ± 0.043.

With VRLVQFQKNTDEPMGITLKMNELNHCIVAVIMHGGMIHRQGTLHVGDEIREINGISVANQTVEQLQKMLREMRGSITFKIVP [R30V], the abundance fitness is -0.163 ± 0.032.

On to VRLVQFQKNTDEPMGITLKMNELNHCIVARIMHGGMIHRQGTLHVGDEIREINGISVANQTVEQWQKMLREMRGSITFKIVP [L65W], for which the abundance fitness is -0.049 ± 0.028.

Regarding VRLVQFQKNTDEPMGIPLKMNELNHCIVARIMHGGMIHRQGTLHVGDEIREINGISVANQTVEQLQKMLREMRGSITFKIVP [T17P], the abundance fitness is -1.07 ± 0.075.

VRLVQFQKNTDEPMGITLKMNEANHCIVARIMHGGMIHRQGTLHVGDEIREINGISVANQTVEQLQKMLREMRGSITFKIVP [L23A]: the abundance fitness is 0.039 ± 0.028.

Take VRLVQFQKNTDEPMGITLKMNELNHCIVARIMHGGMIHRQGTLHVGDEIREINGISVANQTVEQLQKFLREMRGSITFKIVP [M68F]: the abundance fitness was -0.028 ± 0.058.

With VRLVQEQKNTDEPMGITLKMNELNHCIVARIMHGGMIHRQGTLHVGDEIREINGISVANQTVEQLQKMLREMRGSITFKIVP [F6E], the abundance fitness is -0.629 ± 0.038.

Regarding VRLVQFQKNTDEPMGITLKMNELNHCIVARIMHGGMIHRQGTLHTGDEIREINGISVANQTVEQLQKMLREMRGSITFKIVP [V45T], the abundance fitness was 0.022 ± 0.075.

VRLVQFQKNTDEPMGITLKMNELNHCIVARIMHGGMIHEQGTLHVGDEIREINGISVANQTVEQLQKMLREMRGSITFKIVP [R39E]: the abundance fitness is -0.052 ± 0.026.

Take VRLVQFQKNTDEPMGITLKMNELNHCIVARIMHGGMIHRQGTNHVGDEIREINGISVANQTVEQLQKMLREMRGSITFKIVP [L43N]: the abundance fitness was -0.906 ± 0.15.

Turning to VRLVQFQKNTDEPMGITLKMNELNHCIVARIMHGGMIHRQGTCHVGDEIREINGISVANQTVEQLQKMLREMRGSITFKIVP [L43C], the abundance fitness is -0.308 ± 0.038.

Take VRLVQFQKNTDEPMGITLKMNELNHCIVARIMHGGMIHRQGTLHVGDEIREIHGISVANQTVEQLQKMLREMRGSITFKIVP [N53H]: the abundance fitness is -0.7 ± 0.13.

Take VRLVQFQKNTDEPMGITLKMNELNHCIVARIMHGGMIHRQGTLHVGDEIREITGISVANQTVEQLQKMLREMRGSITFKIVP [N53T]: the abundance fitness is -0.567 ± 0.073.

With VRLVQFQKNTDEPMGITLKMNELNHCIVARIMHGGMIHRQGTLHVGDEIREIMGISVANQTVEQLQKMLREMRGSITFKIVP [N53M], the abundance fitness is -0.357 ± 0.088.

As for VRLVQFQKNTDEPMGITLKMNELNHCIVARIMHGGMIPRQGTLHVGDEIREINGISVANQTVEQLQKMLREMRGSITFKIVP [H38P], the abundance fitness is -0.103 ± 0.034.

In the case of VRLVQFQKNTDEPMGITLKMNELNHCIVARIMHGGMIHRQGTLHVGDEIREINFISVANQTVEQLQKMLREMRGSITFKIVP [G54F], the abundance fitness is -0.043 ± 0.079.

Consider VRLVQFQKNTDEPMGITLKMNELNHCIVARIMHGGMIHRQGTLHVGDEIREINLISVANQTVEQLQKMLREMRGSITFKIVP [G54L], for which the abundance fitness was -0.636 ± 0.066.
